Target: the molecule itself
Experiment: crystal structure; apo PaIMPDH, sitting-drop vapour diffusion, 0.2 M sodium acetate pH 4.5, 40% MPD, room temperature; space group I4, one subunit in the asymmetric unit, tetramer by the crystallographic fourfold axis; 2.25 Å

B1: Pseudomonas aeruginosa inosine 5′-monophosphate dehydrogenase (enzyme, UniProt Q9HXM5 1-489, looked up)
chain: MLRISQEALTFDDVLLIPGYSEVLPKDVSLKTRLTRGIELNIPLVSAAMDTVTEARLAIAMAQEGGIGIIHKNMGIEQQAAEVRKVKKHETAIVRDPVTVTPSTKIIELLQMAREYGFSGFPVVEQGELVGIVTGRDLRVKPNAGDTVAAIMTPKDKLVTAREGTPLEEMKAKLYENRIEKMLVVDENFYLRGLVTFRDIEKAKTYPLASKDEQGRLRVGAAVGTGADTGERVAALVAAGVDVVVVDTAHGHSKGVIERVRWVKQTFPDVQVIGGNIATAEAAKALAEAGADAVKVGIGPGSICTTRIVAGVGVPQISAIANVAAALEGTGVPLIADGGIRFSGDLAKAMVAGAYCVMMGSMFAGTEEAPGEIELFQGRSYKSYRGMGSLGAMSGSQGSSDRYFQDASAGAEKLVPEGIEGRVPYKGALSAIVHQLMGGLRAAMGYTGSADIQQMRTQPQFVRITGAGMAESHVHDVQITKEAPNYRVG
notes: Inosine 5′-monophosphate dehydrogenase of Pseudomonas aeruginosa, full-length gene PA3770, amino acids 1-489, synthesised and codon-optimised for E. coli; Modified pET15b: N-terminal His tag followed by a TEV protease cleavage site; The His tag was still present at size-exclusion chromatography; The model holds only residues 1-91, 205-370 and 426-467; also called PaIMPDH; IMPDH; not shown: His …
- stoichiometry N: 4

Reference: paper PMC3606566, “Structure of Pseudomonas aeruginosa inosine 5′-monophosphate dehydrogenase” (Acta Crystallographica Section F: Structural Biology and …, 2013)
